How the values were obtained:
[1] = molecular target: deglycosylated human nAChR α9-ECD (human) (UniProt Q9UGM1); test: radioligand binding
[2] = molecular target: glycosylated human nAChR α9-ECD (human) (UniProt Q9UGM1); test: radioligand binding

## α-conotoxin RgIA, globular isomer, C-terminally amidated (from UniProt P0C1D0 20-32) (peptide)
[1]
  Ki: 2.7 µM
[2]
  Ki: 13.3 µM

Reference: paper PMC6504684 (Frontiers in Pharmacology, 2019)
